Assay results: the DeepSol protein solubility set

test: soluble on expression in E. coli; label from the status in PepcDB or PDB records

Q: For “MAHHHHHHMKNFASWALRLHQDGISEERPQLGKQLYDKVCTVQTVKDYPGLRFKDMKEAIGFPIKRDDMFLPASMKEKRQQQQQIGVPPRRSQCFTCGQLGHYSNTCGVFKHKLNTRQKSDIQFKKQ”, which “soluble on expression in E. coli” value is on record?
A: not soluble

Q: For “MNEKVFRDPVHTYIHVNNQVIYDLINTKEFQRLRRIKQTSTTSFTFHGAEHS”, which “soluble on expression in E. coli” value is on record?
A: not soluble

Q: Which “soluble on expression in E. coli” value does the source give for “MKDCSNGCSAECTGEGGSKEVVGTFKAKDLIVTPATILKEKPDPNNLVFGTVFTDHMLTVEWSSEFGWEKPHIKPLQNLSLHPGSSALHYAVELFEGLKAFRGVDNKIRLFQPNLNMDRMYRSAVRATLPVFDKEELLECIQQLVKLDQEWVPYSTSASLYIRPTFIGTEPSLGVKKPTKALLFVLLSPVGPYFSSGTFNPVSLWANPKYVRAWKGGTGDCKMGGNYGSSLFAQCEAVDNGCQQVLWLYGEDHQITEVGTMNLFLYWINEDGEEELATPPLDGIILPGVTRRCILDLAHQWGEFKVSERYLTMDDLTTALEGNRVREMFGSGTACVVCPVSDILYKGETIHIPTMENGPKLASRILSKLTDIQYGREERDWTIVLS” here?
A: soluble

Q: For “MGSDKIHHHHHHCKPSKDETSSLKTADRKPLVTNLGNNVILPRYVALNTSVNAFDSEVQIFTAAPTIENLTSLRIKFYQAYIDWEYVACFEFGPAAASTVNLGTKTVNAFPADTAVIKNKIVQGVTAIPPTNSAMYSGFPAIDYLLFAKSLTAQQIVDSFTVSSTAVKRCNYLKTVSSDLKARINTTYTNWTASGANFISLYTNSTGIDLGSATSQTVNMLVADVENIKNFKLGIPLNIIQNVVVGDGSTVNPFKCEGYHSDSSLVLAKASIESLRKLYLGIGADGTDGEGFDNYLEAIDRSGLNVQIKNQIALLQAKLDAIPAPISIAIKNPAGKQAVNEAYTETLHLLVLLKVDMASAIGVMISYGDTDGD”, which “soluble on expression in E. coli” value is on record?
A: not soluble

Q: With “MSSFHATTIFAVQHKGRSAMSGDGQVTFGQAVVMKHTARKVRKLFNGKVLAGFAGSVADAFTLFEKFEAKLEEYNGNLKRAAVELAKEWRSDKVLRKLEAMLIVMNQDTLLLVSGTGEVIEPDDGILAIGSGGNYALAAGRALKKHAGESMSASEIARAALETAGEICVYTNDQIILEELE” as the sequence, how does the “soluble on expression in E. coli” value read?
A: soluble

Q: Which “soluble on expression in E. coli” value does the source give for “MGSDKIHHHHHHMQMAVRWQLSGSYFENCSCDVVCPCLLSTKAQLTSRPTKGVCDVGLVFHIDTGNYGDVRLDGLSVALVAHTPGPMADGNWTAAAYIDERADDRQTEALGAIFTGAAGGPMAVLAPMIGTNLGAKKVPIDYRIDGKKRSAAIAGVMQMAVEPLPTMREDGQMWAATGHPVNPDWLGMAMGAQGSTFSDHGMSWDNSGQNGHYAPINWSGE” here?
A: not soluble

Q: With “GEGLGEEVIEEVYEELLSSFDTEYGGFSGAPKFPTPHKISFLLRYWRRSRNPEALHMAEYTLDKMRRGGIYDHLGSGFHRYSTDSMWLLPHFEKMLYDQALTAIAYTEAYQVTGKDLYKETAEGILDYVLRDLTSPEGGFYCGEDADVEREEGKYYLWTLEEIRSILDPEDSELIIKMFNLREEGNFEEEIRGRETGTNLFYMARSPGSLAAKMKIPVEEVEKKVKAAREKLLKARYERKRPSLDDKILTDWNGLMIAAFAKGYQVFGEQRYLKAAEKAADFILMALYSPGDGLLHRYRDGVAGISGTSDDYAFLIHGLLELYEAGFKMRYLKAAVSLNSELLECFWDPVNGGLYFTANDSEALIFRKKE” as the sequence, how does the “soluble on expression in E. coli” value read?
A: not soluble

Q: For “MGSDKIHHHHHHMLEKKARIADEAEIVDEAIVSRRSVRAFLPDMIDDDTIRDILEVAARAPSGTNMQPWRVYVTKGETKQQISDAILNSGIRAEKADWDEYRYYPTQFFEPYLTRRRANGFGLYGALGIGRREVDKMRAQHDRNFVFFDAPVGMIFTIDRRLNQGSWIDYGMFLQNIMVAARGRGLHTCPQAAFAPYHRQIRPVLNIPDEEIVVCGMALGYEDTSKPENAFRTDRVPLEEWVTFSE”, which “soluble on expression in E. coli” value is on record?
A: not soluble

Q: For “MAAERVFISPAKYVQGKNVITKIANYLEGIGNKTVVIADEIVWKIAGHTIVNELKKGNIAAEEVVFSGEASRNEVERIANIARKAEAAIVIGVGGGKTLDTAKAVADELDAYIVIVPTAASTDAPTSALSVIYSDDGVFESYRFYKKNPDLVLVDTKIIANAPPRLLASGIADALATWVEARSVIKSGGKTMAGGIPTIAAEAIAEKCEQTLFKYGKLAYESVKAKVVTPALEAVVEANTLLSGLGFESGGLAAAHAIHNGFTALEGEIHHLTHGEKVAFGTLVQLALEEHSQQEIERYIELYLCLDLPVTLEDIKLKDASREDILKVAKAATAEGETIHNAFNVTADDVADAIFAADQYAKAYKEKHRK”, which “soluble on expression in E. coli” value is on record?
A: soluble

Q: Which “soluble on expression in E. coli” value does the source give for “MNSVGFYGKLAGRGDFVSRGLPNTFVEPWDAWLASGMRASQDELGAAWLDAYLTSPLWRFAIAPGLLGGEAVTGVVMPSIDRVGRYFPLTVACLLPANADLGGLVGGDDGWFEQVESLLLSTLEPEAEVEAFEQAVAQLPAPPCGPRIEQSLISGNLLRSEAVTPAQRLAALAQHACDGASHWWGRGSARISAGLMRYQGLPPAPAFGRFLTGEGEVIPLFPGIPG” here?
A: soluble

Q: For “MGSDKIHHHHHHMSPEPNGDAVSIILETEGPMTAAPKTVRSVERTLQILELMNRAAVVRVQYLAEQIGLPAPTVVRLLETLVAAGYVRKIGRQAGYCVTEKVAALGAGHHGLPQVFDVAREAAEDLTRRTLWPTALATLDVDALVIRFSTIPMSPLSHYQSTINRRMTLLDYAHGRAYLGFCPTEERQHLVALLQQTAGSVEEARAIGERAQSVVALTRASGFGERTGNIQPETHSLALPLRMGAKLVGTLGITYFAKAKVDVSALKSDLRAAAEACTSGTAYRAPASSG”, which “soluble on expression in E. coli” value is on record?
A: not soluble

Q: For “MALNTNQLFAYLNRGDIAEFKFSPLFTTLFFPNVATFSTQNIMLDTLDIEEVTMSAFCSPMVGSQVQRDKGYETSTIKPGYMKPKHEIDPTKTIMRMAGEDPAQLNDPTYRRMRLITGNMRRQINAIKARVEWLAVNAVTTGKNIIEGEGIERYEIDWKIPEKNIIEQADGKKWSEQDKETHYPIYDIELYADQAGCPANVMIMGAEVWRTLRSFKKFRELYDLSRGSESAAELACKNLGEVVSFKGYLGDLALIVYSGKYTDSDGTEKYFLEPDLLVLGNTNNKGLVAYGAIMDQEAVRTGATQNMFYPKNWIEDGDPAIEYVQTHSAPQPVPADIRKFVTVKIA”, which “soluble on expression in E. coli” value is on record?
A: not soluble

Q: For “GPGSMLLMPFPLVPSPPPTRLSGHLTPVALVGVLVCASPRCAPKPRPRPWNASHTHTHTHTSPRPLIAHTVSLCVSVVRKHLFFFRRFLRLPPSPNRKRNQLTGAAMLTRRAVSSAVGAAMVTSSSVSMQRRYDHDRWYGHALELDTHNYKFNGEPPSWMKTRAKTEEETSFAKSVLPHIDFASSYECLLFDADRLNTNLNRKEFGNEIKYRLEKQANTVARAQQLLRDKKAGTGPDAEKVENTLIARIFDEEHVQAEMKYVKCIRANELAEDNRLDILPGGSPNSLREKTRWNLNTELHPADRAEIGARLTAWLPEKYHIVYFDDFQTVAANDATARKEMLEIVESVQKEYTAEAKEGGYESDLKEAVAELMDDVDPTRTITMEAIKSCKDLQQLEDWSRQVHEYNGDDRIIAIYARAAEITKNVEHQALVRQMREWRKLATKNESKL”, which “soluble on expression in E. coli” value is on record?
A: not soluble

Q: For “MSSTLPVINLMGPTASGKTALACELYERGHFELISVDSALIYKDMDIGTAKPTKEELALYPHHLIDIITPLEVYSAAQFVEDATQLIDQIHMKGKTPILVGGTMLYFKSLLEGLSTNLPSADAEVRAAIEKQAEQEGWQSVYDELARVDPVAGARFKVSDRQRIIRAIEVYRLTGQPITKLQAEQPKNVPYRYTFHNYALLPDRIELHKRIEQRLFKMWSIGFLNEVESLIKKYDLNDNLPSMRSVGYRQALDFLLKSDMSHNNRREMEDKALFATRQLAKRQYTWLRSLQETHYFKTYLTIKQAQEDLRNSYGLEHHHHHH”, which “soluble on expression in E. coli” value is on record?
A: soluble
